Results as given in article PMC10057847, “Precision engineering of biological function with large-scale measurements and machine learning” (PLOS ONE, 2023).

B1: pVER-IPTG-WT(Q291L): LacI variant: Q291L (protein, UniProt P03023 1-360, looked up, variant Q291L)
Lactose operon repressor: MKPVTLYDVAEYAGVSYQTVSRVVNQASHVSAKTREKVEAAMAELNYIPNRVAQQLAGKQSLLIGVATSSLALHAPSQIVAAIKSRADQLGASVVVSMVERSGVEACKAAVHNLLAQRVSGLIINYPLDDQDAIAVEAACTNVPALFLDVSDQTPINSIIFSHEDGTRLGVEHLVALGHQQIALLAGPLSSVSARLRLAGWHKYLTRNQIQPIAEREGDWSAMSGFQQTMQMLNEGIVPTAMLVANDQMALGAMRAITESGLRVGADISVVGYDDTEDSSCYIPPLTTIKLDFRLLGQTSVDRLLQLSQGQAVKGNQLLPVSLVKRKTTLAPNTQTASPRALADSLMQLARQVSRLESGQ
B2: pVER-IPTG-081: LacI variant: P285S V301M S308P M347V (protein, UniProt P03023 1-360, looked up, variant P285S V301M S308P M347V)
Lactose operon repressor: MKPVTLYDVAEYAGVSYQTVSRVVNQASHVSAKTREKVEAAMAELNYIPNRVAQQLAGKQSLLIGVATSSLALHAPSQIVAAIKSRADQLGASVVVSMVERSGVEACKAAVHNLLAQRVSGLIINYPLDDQDAIAVEAACTNVPALFLDVSDQTPINSIIFSHEDGTRLGVEHLVALGHQQIALLAGPLSSVSARLRLAGWHKYLTRNQIQPIAEREGDWSAMSGFQQTMQMLNEGIVPTAMLVANDQMALGAMRAITESGLRVGADISVVGYDDTEDSSCYIPSLTTIKQDFRLLGQTSMDRLLQLPQGQAVKGNQLLPVSLVKRKTTLAPNTQTASPRALADSLVQLARQVSRLESGQ
B3: pVER-IPTG-002(V136E): LacI variant: V96E V136E T154I S158R V238D M254I V264I (protein, UniProt P03023 1-360, looked up, variant V96E V136E T154I S158R V238D M254I V264I)
Lactose operon repressor: MKPVTLYDVAEYAGVSYQTVSRVVNQASHVSAKTREKVEAAMAELNYIPNRVAQQLAGKQSLLIGVATSSLALHAPSQIVAAIKSRADQLGASVVESMVERSGVEACKAAVHNLLAQRVSGLIINYPLDDQDAIAEEAACTNVPALFLDVSDQIPINRIIFSHEDGTRLGVEHLVALGHQQIALLAGPLSSVSARLRLAGWHKYLTRNQIQPIAEREGDWSAMSGFQQTMQMLNEGIDPTAMLVANDQMALGAIRAITESGLRIGADISVVGYDDTEDSSCYIPPLTTIKQDFRLLGQTSVDRLLQLSQGQAVKGNQLLPVSLVKRKTTLAPNTQTASPRALADSLMQLARQVSRLESGQ
B4: pVER-IPTG-WT(S70R/V271M): LacI variant: S70R V271M (protein, UniProt P03023 1-360, looked up, variant S70R V271M)
Lactose operon repressor: MKPVTLYDVAEYAGVSYQTVSRVVNQASHVSAKTREKVEAAMAELNYIPNRVAQQLAGKQSLLIGVATSRLALHAPSQIVAAIKSRADQLGASVVVSMVERSGVEACKAAVHNLLAQRVSGLIINYPLDDQDAIAVEAACTNVPALFLDVSDQTPINSIIFSHEDGTRLGVEHLVALGHQQIALLAGPLSSVSARLRLAGWHKYLTRNQIQPIAEREGDWSAMSGFQQTMQMLNEGIVPTAMLVANDQMALGAMRAITESGLRVGADISVMGYDDTEDSSCYIPPLTTIKQDFRLLGQTSVDRLLQLSQGQAVKGNQLLPVSLVKRKTTLAPNTQTASPRALADSLMQLARQVSRLESGQ
B5: pVER-IPTG-206: LacI variant: V95M A337T (protein, UniProt P03023 1-360, looked up, variant V95M A337T)
Lactose operon repressor: MKPVTLYDVAEYAGVSYQTVSRVVNQASHVSAKTREKVEAAMAELNYIPNRVAQQLAGKQSLLIGVATSSLALHAPSQIVAAIKSRADQLGASVMVSMVERSGVEACKAAVHNLLAQRVSGLIINYPLDDQDAIAVEAACTNVPALFLDVSDQTPINSIIFSHEDGTRLGVEHLVALGHQQIALLAGPLSSVSARLRLAGWHKYLTRNQIQPIAEREGDWSAMSGFQQTMQMLNEGIVPTAMLVANDQMALGAMRAITESGLRVGADISVVGYDDTEDSSCYIPPLTTIKQDFRLLGQTSVDRLLQLSQGQAVKGNQLLPVSLVKRKTTLAPNTQTTSPRALADSLMQLARQVSRLESGQ
B6: pVER-IPTG-138: LacI variant: S28G T34M Q60R A81S E100K L148V S221N V271L (protein, UniProt P03023 1-360, looked up, variant S28G T34M Q60R A81S E100K L148V S221N V271L)
Lactose operon repressor: MKPVTLYDVAEYAGVSYQTVSRVVNQAGHVSAKMREKVEAAMAELNYIPNRVAQQLAGKRSLLIGVATSSLALHAPSQIVSAIKSRADQLGASVVVSMVKRSGVEACKAAVHNLLAQRVSGLIINYPLDDQDAIAVEAACTNVPALFVDVSDQTPINSIIFSHEDGTRLGVEHLVALGHQQIALLAGPLSSVSARLRLAGWHKYLTRNQIQPIAEREGDWNAMSGFQQTMQMLNEGIVPTAMLVANDQMALGAMRAITESGLRVGADISVLGYDDTEDSSCYIPPLTTIKQDFRLLGQTSVDRLLQLSQGQAVKGNQLLPVSLVKRKTTLAPNTQTASPRALADSLMQLARQVSRLESGQ
B7: pVER-IPTG-004(V136E): LacI variant: A87P V136E V301M E357G (protein, UniProt P03023 1-360, looked up, variant A87P V136E V301M E357G)
Lactose operon repressor: MKPVTLYDVAEYAGVSYQTVSRVVNQASHVSAKTREKVEAAMAELNYIPNRVAQQLAGKQSLLIGVATSSLALHAPSQIVAAIKSRPDQLGASVVVSMVERSGVEACKAAVHNLLAQRVSGLIINYPLDDQDAIAEEAACTNVPALFLDVSDQTPINSIIFSHEDGTRLGVEHLVALGHQQIALLAGPLSSVSARLRLAGWHKYLTRNQIQPIAEREGDWSAMSGFQQTMQMLNEGIVPTAMLVANDQMALGAMRAITESGLRVGADISVVGYDDTEDSSCYIPPLTTIKQDFRLLGQTSMDRLLQLSQGQAVKGNQLLPVSLVKRKTTLAPNTQTASPRALADSLMQLARQVSRLGSGQ
B8: pVER-IPTG-144: LacI variant: V15I F161I A266T K290R M347I (protein, UniProt P03023 1-360, looked up, variant V15I F161I A266T K290R M347I)
Lactose operon repressor: MKPVTLYDVAEYAGISYQTVSRVVNQASHVSAKTREKVEAAMAELNYIPNRVAQQLAGKQSLLIGVATSSLALHAPSQIVAAIKSRADQLGASVVVSMVERSGVEACKAAVHNLLAQRVSGLIINYPLDDQDAIAVEAACTNVPALFLDVSDQTPINSIIISHEDGTRLGVEHLVALGHQQIALLAGPLSSVSARLRLAGWHKYLTRNQIQPIAEREGDWSAMSGFQQTMQMLNEGIVPTAMLVANDQMALGAMRAITESGLRVGTDISVVGYDDTEDSSCYIPPLTTIRQDFRLLGQTSVDRLLQLSQGQAVKGNQLLPVSLVKRKTTLAPNTQTASPRALADSLIQLARQVSRLESGQ
B9: pVER-IPTG-008: LacI variant: S61L I237T T258S A266T I289F R351* (protein, UniProt P03023 1-360, looked up, variant S61L I237T T258S A266T I289F R351*)
Lactose operon repressor: MKPVTLYDVAEYAGVSYQTVSRVVNQASHVSAKTREKVEAAMAELNYIPNRVAQQLAGKQLLLIGVATSSLALHAPSQIVAAIKSRADQLGASVVVSMVERSGVEACKAAVHNLLAQRVSGLIINYPLDDQDAIAVEAACTNVPALFLDVSDQTPINSIIFSHEDGTRLGVEHLVALGHQQIALLAGPLSSVSARLRLAGWHKYLTRNQIQPIAEREGDWSAMSGFQQTMQMLNEGTVPTAMLVANDQMALGAMRAISESGLRVGTDISVVGYDDTEDSSCYIPPLTTFKQDFRLLGQTSVDRLLQLSQGQAVKGNQLLPVSLVKRKTTLAPNTQTASPRALADSLMQLAQVSRLESGQ
B10: pVER-IPTG-084: LacI variant: A92I S269T N333H L346* (protein, UniProt P03023 1-360, looked up, variant A92I S269T N333H L346*)
Lactose operon repressor: MKPVTLYDVAEYAGVSYQTVSRVVNQASHVSAKTREKVEAAMAELNYIPNRVAQQLAGKQSLLIGVATSSLALHAPSQIVAAIKSRADQLGISVVVSMVERSGVEACKAAVHNLLAQRVSGLIINYPLDDQDAIAVEAACTNVPALFLDVSDQTPINSIIFSHEDGTRLGVEHLVALGHQQIALLAGPLSSVSARLRLAGWHKYLTRNQIQPIAEREGDWSAMSGFQQTMQMLNEGIVPTAMLVANDQMALGAMRAITESGLRVGADITVVGYDDTEDSSCYIPPLTTIKQDFRLLGQTSVDRLLQLSQGQAVKGNQLLPVSLVKRKTTLAPHTQTASPRALADSMQLARQVSRLESGQ

Tested on: eYFP under the control of the lactose operator (lacO)
Test: in vivo dose-response curves of LacI variants to IPTG measured with flow cytometry (eYFP output), fit to the Hill equation
Assay type: cell-based, E. coli
Conditions: Hill fit of cytometry data; for log_ginf: the base-10 logarithm of G∞ (in MEF): saturating output; for log_ginf: the base-10 logarithm of G∞ (in MEF) / log_g0: the base-10 logarithm of G0 (in MEF): value is log10; for n: the Hill coefficient: IPTG dose-response; for log_g0: the base-10 logarithm of G0 (in MEF): basal output
Description: Dose-response curves were measured with flow cytometry using E. coli MG1655Δlac transformed with variants of the pVER plasmid, described previously. The plasmid contained different variants of the lacI coding DNA sequence (CDS), as described in the text, and an expression cassette with enhanced yellow fluorescent protein (eYFP) under the control of the lactose operator (lacO). The lacI CDS was verified with Sanger sequencing for each variant.
All cultures were grown in a rich M9 media (3 g/L KH2PO4, 6.78 g/L Na2HPO4, 0.5 g/L NaCl, 1 g/L NH4Cl, 0.1 mmol/L CaCl2, 2 mmol/L MgSO4, 4% glycerol, and 20 g/L casamino acids) supplemented with 50 μg/mL kanamycin.
For flow cytometry measurements, E. coli cultures were grown in a laboratory automation system that included an automated liquid handler (Hamilton, STAR), an automated plate sealer (4titude, a4S), an automated de-sealer (Brooks, XPeel), and two multi-mode plate readers (BioTek, Neo2SM).
Cultures were grown in clear polystyrene 96-well plates with 1.1 mL square wells (4titude, 4ti-0255). The culture volume per well was 0.5 mL. Before incubation, each 96-well growth plate was sealed by the automated plate sealer with a gas permeable membrane (4titude, 4ti-0598). Growth plates were incubated in one of the multi-mode plate readers at 37°C with a 1°C gradient applied from the bottom to the top of the incubation chamber to minimize condensation on the inside of the membrane. The plate readers were set for double-orbital shaking at 807 cycles per minute. Optical density at 600 nm (OD600) was measured every 5 minutes during incubation, with continuous shaking applied between measurements (optical density at 700 nm and YFP fluorescence were also measured every 5 minutes). After incubation, the automated de-sealer was used to remove the gas-permeable membrane from each 96-well plate to enable automated passaging of cultures and sample preparation for flow cytometry measurements.
For each measurement, starter cultures were prepared from glycerol freezer stock in 5 mL of rich M9 media in a 14 mL snap-cap culture tubes. Starter cultures were incubated at 37°C with orbital shaking at 300 rpm for between 4 h and 24 h prior to loading the automation system. The automation system then prepared 96-well growth plates, sealed and de-sealed the growth plates, incubated the growth plates, and prepared flow cytometry sample plates. The automated culture protocol consisted of the following steps: […]

Molecule | log_ginf: the base-10 logarithm of G∞ (in MEF) (posterior mean) [MEF] | n: the Hill coefficient | log_g0: the base-10 logarithm of G0 (in MEF) (posterior mean) [MEF] | EC50 (IPTG as ligand, posterior mean, read-out: log_ec50: the base-10 logarithm of EC50 (converted)) [nM]
B1 | 4.407 |  |  | 
B2 | 4.489 |  |  | 
B3 | 1.924 | 2.088 | 4.551 | 
B4 | 4.268 | 1.459 |  | 
B5 |  | 1.594 |  | 
B6 | 4.407 |  |  | 
B7 | 1.925 | 1.631 | 4.54 | 
B8 |  | 1.459 |  | 
B9 | 3.274 | 1.488 | 4.293 | 
B10 | 4.457 | 1.53 | 3.264 | 1520
